Assay [1] addresses T1, human CCR8 (human, UniProt P51685 1-355). Put plainly: cell-based or functional assay.
The target in assay [2] is T2, cynomolgus monkey CCR8 (comprising threonine at position four) (cynomolgus monkey, UniProt O97665 1-356 (rhesus entry)).
T2 construct: also called Cyno CCR8; cynomolgus CCR8
As to the kind of experiment: flow cytometry titration on CHO cells. As to the method: (§1) Bound anti-CCR8 antibody molecules were detected with Alexa Fluor 647 conjugated Goat anti-Human IgG (H+L). Cells were subsequently stained with Zombie Violet viability dye, fixed with 4% PFA on ice, and detected by fluorescence cytometry. Equilibrium dissociation constant (Kd) values were calculated by non-linear regression with the one site specific binding evaluation tool of the GraphPad Prism software. “N.D.” means not detectable.

The target of assay [3] is T3, cynomolgus monkey CCR8 (T4R; comprising arginine at position four) (cynomolgus monkey, UniProt O97665 1-356 (rhesus entry)).
T3 construct: Expressed on CHO cells; also called cy CCR8 (T4R); Cynomolgus monkey Mauritian origin T4R CCR8
T3 chain: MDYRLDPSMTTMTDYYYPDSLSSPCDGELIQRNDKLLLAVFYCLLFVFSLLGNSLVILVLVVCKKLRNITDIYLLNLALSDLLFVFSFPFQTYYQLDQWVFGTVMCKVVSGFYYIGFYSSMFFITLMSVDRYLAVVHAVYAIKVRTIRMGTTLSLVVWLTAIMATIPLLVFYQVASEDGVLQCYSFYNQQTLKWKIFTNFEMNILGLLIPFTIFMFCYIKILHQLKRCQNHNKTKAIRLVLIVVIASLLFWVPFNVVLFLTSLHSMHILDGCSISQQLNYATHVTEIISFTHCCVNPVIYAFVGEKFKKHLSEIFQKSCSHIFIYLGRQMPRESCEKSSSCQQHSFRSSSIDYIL
As to the kind of experiment: flow cytometry titration on CHO cells; N.D. means not detectable. As to the method:
as §1
For orientation: Flow cytometry measures light scatter and fluorescence of single cells or particles in a stream.

For assay [4], the target named is T4, huCCR8 (1-12)-Nb (human, not fully specified (C-terminus); also: fused to nanobody, biotinylated in Fab assay).
T4 construct: Expressed in human cells; also called CCR8 peptide-Nb fusion; not shown: nanobody (Nb) fusion partner, any linker or tag to it, and the biotin site
T4 peptide: MDYTLDLSVTTV
As to the kind of experiment: BLI (Octet), biotinylated peptide-Nb on streptavidin sensor, Fab in solution. Here is the method:
(§2) Binding affinities (KD equilibrium dissociation constant) and rate constants (kₐ association rate constant, kd dissociation rate constant) of an Antibody 1 Fab and CCR8-binding monoclonal antibodies (mAbs) of the present invention to a CCR8 1-12 epitope (SEQ ID NO: 82)-nanobody (Nb) fusion protein were measured using an OCTET® Biolayer Interferometry system (Sartorius AG, Göttingen, Germany). The CCR8-nanobody fusion proteins were expressed in human cells. For Fab binding, biotinylated CCR8 peptide-Nb fusions were captured on streptavidin SAX biosensors to loading levels between 2 and 4 nm and then incubated with a dilution series of the soluble Fab (top 100 nM, 6-point, 1:3 serial dilution) for 300 seconds followed by 500 seconds in buffer for dissociation. For mAb binding, mAbs were captured on an anti-huIgG Fc capture biosensor to 1 to 2 nm loading level and then incubated with a dilution series of non-biotinylated CCR8 peptide-Nb fusions (top 100 nM, 6-point, 1:3 serial dilution) for 300 seconds followed by 500 seconds in buffer for dissociation.
(§3) The OCTET® system acquires data over time (seconds) using a mechanism called Biolayer Interferometry; as proteins bind to biosensor tips, a sensitive binding signal in nm is measured by the instrument. All fiber optic tips were used once and then discarded, i.e., no regeneration. OCTET® buffer baselines, dissociation steps, and protein dilutions were made with OCTET® buffer (10 mM TRIS pH 7.5, 150 mM NaCl, 1 mM CaCl₂), 0.13% (v/v) Triton X-100 and 0.10 mg/mL BSA).
(§4) Raw data was processed with GeneData Screener v18 SPR package which uses the same data processing as the OCTET® instrument Data Analysis software (subtract average of two reference wells per column; Align Y-axis to baseline; Interstep correction align to dissociation; and Savitzky-Golay filtering). Each Fab or mAb interaction was grouped into its own sensorgram and globally fit with a 1:1 binding model to determine the association rate constant (kₐ; units M⁻¹ sec⁻¹) and the dissociation rate constant (kd; units sec⁻¹).
(In general: Biolayer interferometry detects binding as a change in optical thickness at a sensor tip.)

Assay [5] addresses T5, huCCR8 (1-25)[C25S]-Nb (human, not fully specified; biotinylated for the Fab assay, non-biotinylated for the mAb assay ; biotinylated when captured on streptavidin sensors (Fab assay); non-biotinylated in the mAb assay).
T5 construct: Expressed in human cells; also called CCR8 peptide-Nb fusion; not shown: nanobody (Nb) fusion partner, any linker or tag to it, and the biotin site
T5 peptide: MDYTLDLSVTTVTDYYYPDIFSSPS
The description is as above.

Assay [6] deals with T1, human CCR8. Put plainly: cell-based or functional assay. The source holds these as a separate data set.
The target in assay [7] is T4, huCCR8 (1-12)-Nb. Put plainly: BLI (Octet), mAb on anti-huIgG Fc sensor, peptide-Nb in solution. As to the method:
as §2, §3, §4

The target in assay [8] is T1, human CCR8. Put plainly: cell-based or functional assay. The source holds these as a separate data set.
The target in assay [9] is T3, cynomolgus monkey CCR8 (T4R; comprising …). As to the kind of experiment: flow cytometry titration on CHO cells. As to the method:
as §1

Assay [10] concerns the target T1, human CCR8. As to the kind of experiment: cell-based or functional assay. The source holds these as a separate data set.
Assay [11] deals with T5, huCCR8 (1-25)[C25S]-Nb. As to the kind of experiment: BLI (Octet), mAb on anti-huIgG Fc sensor, peptide-Nb in solution.

Data on 6 molecules can be found in US20250171549A1 (Amgen, published 2025).

By Kd is commonly meant the concentration at which binding is half-saturated. One may read the koff as the first-order rate constant of dissociation. Broadly, the kon is the second-order rate constant of association.

Where no end group is shown, it is not given here.

T1 sequence (P51685 whole entry): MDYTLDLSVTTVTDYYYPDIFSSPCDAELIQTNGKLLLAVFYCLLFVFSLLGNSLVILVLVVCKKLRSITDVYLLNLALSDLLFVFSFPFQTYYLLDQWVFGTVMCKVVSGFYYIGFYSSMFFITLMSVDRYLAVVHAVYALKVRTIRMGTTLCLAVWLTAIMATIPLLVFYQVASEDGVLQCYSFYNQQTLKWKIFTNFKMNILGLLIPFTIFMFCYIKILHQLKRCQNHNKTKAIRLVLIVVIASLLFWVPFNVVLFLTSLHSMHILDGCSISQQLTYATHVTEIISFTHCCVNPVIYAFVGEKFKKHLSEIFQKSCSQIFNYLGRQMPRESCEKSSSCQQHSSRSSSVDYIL

B1: Antibody 1.1 IgG1 (LC: H45Q_S51P) (antibody, V domains shown)
VH: EVQLVESGGGLVKPGGSLRLSCAASGFTFSNARMGWVRQAPGKGLEWVGRIKSKTEGGTRDYAAPVKGRFTISRDDSKNTLYLQMNSLKTEDTAVYYCTSYSGVWGQGTMVTVSS
VL: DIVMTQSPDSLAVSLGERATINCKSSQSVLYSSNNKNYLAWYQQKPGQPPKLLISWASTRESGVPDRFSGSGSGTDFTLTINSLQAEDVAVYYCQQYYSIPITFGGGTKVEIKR
notes: Afucosylated IgG1
Take B1: in the assay with human CCR8 [1], the “ADCC, Percent Non-Viable cells (EC50 pM), Donor 1” value was less than 0.256 pM; the “ADCC, Percent Non-Viable cells (EC50 pM), Donor 2” value amounted to 8.13 pM; the “ADCC, Percent Non-Viable cells (EC50 pM), Donor 3” value came out at 2.2 pM. For the same molecule, the Kd in assay [2] was determined as 0.172 nM. Further, the binding result in assay [3] is listed as “no binding (tested: 0.005-100 nM)”.

B2: Fab (HCVR SEQ ID NO: 13; LCVR SEQ ID NO: 14) (Fab, V domains shown)
VH: EVQLVESGGGLVKPGGSLRLSCAASGFTFSNARMGWVRQAPGKGLEWVGRIKSKTEGGTRDYAAPVKGRFTISRDDSKNTLYLQMNSLKTEDTAVYYCTSYSGVWGQGTMVTVSS
VL: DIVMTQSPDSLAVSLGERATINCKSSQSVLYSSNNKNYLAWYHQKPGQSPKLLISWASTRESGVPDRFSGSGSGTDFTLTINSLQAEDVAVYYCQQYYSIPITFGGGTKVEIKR
notes: also called Antibody 1 Fab
In the assay with huCCR8 (1-12)-Nb [4], B2 returned a Kd of 22.6 nM, a koff of 0.0132 s⁻¹ and a kon of 584000 M⁻¹ s⁻¹. Moreover, in the assay with huCCR8 (1-25)[C25S]-Nb [5], binding was characterised by a dissociation constant (Kd) of 17.4 nM, the koff is 0.0106 s⁻¹ and the on-rate (kon) was determined as 606000 M⁻¹ s⁻¹.

B3: huCCR8(32360LC:K38R)_huIgG1z(mAb) (antibody, V domains shown)
VH: EVQLVESGGGLVKPGGSLRLSCAASGFTFSNARMGWVRQAPGKGLEWVGRIKSKTEGGTRDYAAPVKGRFTISRDDSKNTLYLQMNSLKTEDTAVYYCTSYSGVWGQGTMVTVSS
VL: not shown
notes: Afucosylated IgG1, HC without C-terminal lysine
Regarding B3, in the assay with human CCR8 [6], the “ADCC, Percent Non-Viable cells (EC50 pM), Donor 8” value was 3 pM and the “ADCC, Percent Non-Viable cells (EC50 pM), Donor 9” value came out at 2.7 pM. In the assay with huCCR8 (1-12)-Nb [7], this molecule registered a Kd of 60.6 nM, a koff of 0.024 s⁻¹ and a kon of 397000 M⁻¹ s⁻¹.

B4: Antibody 2.2 IgG1 (LC: F2I_P51S_H53Q_L103V_N148K, HC: K87N_S94N_V98A)(LC: Y25A, HC: A71L_D72K) (antibody, V domains shown)
VH: QVQLVESGGGVVQPGRSLRLSCAASGFTFSNYGMHWVRQAPGKGLEWVAVISYDGSNKFYLKSVKGRFTISRDNSKNTLYLQMNSLRAEDTAVYYCARAGGIGRFDYWGQGTLVTVSS
VL: DIVMTQTPLSLSVTPGQPASISCKASQSLLHSDGKTYLFWYLQKPGQSPQLLIYEVSNRFSGVPDRFSGSGSGTDFTLKISRVEAEDVGVYYCMQTLKLPLTFGGGTKVEIKR
notes: Afucosylated IgG1
Take B4: in the assay with human CCR8 [8], the “Percent Inhibition (IC50 nM) of CCL1-dependent chemotaxis of HUT78 cells” value turned out to be 0.076 nM. For the same molecule, in the assay with human CCR8 [1], the “ADCC, Percent Non-Viable cells (EC50 pM), Donor 1” value is less than 0.256 pM; the “ADCC, Percent Non-Viable cells (EC50 pM), Donor 2” value was 6.04 pM; the “ADCC, Percent Non-Viable cells (EC50 pM), Donor 3” value came to 1.8 pM. In [2], this molecule showed a Kd of 0.399 nM. Besides, in assay [9], the Kd is 0.989 nM.

B5: huCCR8_44379 (VH: D61A_D72A, VL: N67Q_M99E_W109F_S111A)_huIgG1z (mAb) (antibody, V domains shown)
VH: QVQLVESGGGVVQPGRSLRLSCAASGFTFSNYGFHWVRQTPGKGLEWVAVISYAGSNRYYAASVKGRFTISRDNSKNTLYLQMNSLRGEDTALYYCARVYYGSGTYYKNRYYYGMDVWGQGTTVTVSS
VL: SYELTQPPSVSVALGQTARITCGGHNIGSKGVHWYQQKPGQAPVLVIYRQSNRPSGIPERFSGSNSGNTATLTISGTQAEDEADYYCQAFDAGTVVFGGGTQLTVLG
notes: Engineered from scFv MPK20299-A4; afucosylated IgG1, HC without C-terminal lysine
In the case of B5, the “ADCC, Percent Non-Viable cells (EC50 pM), Donor 7” value in the assay with human CCR8 [10] came out at 0.52 pM. Besides, in the assay with huCCR8 (1-12)-Nb [7], binding was characterised by a dissociation constant (Kd) of 9.5 nM, the koff was 0.00134 s⁻¹ and the kon came out at 142000 M⁻¹ s⁻¹. In the assay with huCCR8 (1-25)[C25S]-Nb [11], this molecule had a Kd of 7.8 nM, a koff of 0.00114 s⁻¹ and a kon of 146000 M⁻¹ s⁻¹.

B6: huCCR8_44379 (VH: D72S, VL: N67A_S68A_M99G_W109F_S111A)_huIgG1z (mAb) (antibody, V domains shown)
VH: QVQLVESGGGVVQPGRSLRLSCAASGFTFSNYGFHWVRQTPGKGLEWVAVISYDGSNRYYASSVKGRFTISRDNSKNTLYLQMNSLRGEDTALYYCARVYYGSGTYYKNRYYYGMDVWGQGTTVTVSS
VL: SYELTQPPSVSVALGQTARITCGGHNIGSKGVHWYQQKPGQAPVLVIYRAANRPSGIPERFSGSNSGNTATLTISGTQAGDEADYYCQAFDAGTVVFGGGTQLTVLG
notes: as for B5
As for B6, the “ADCC, Percent Non-Viable cells (EC50 pM), Donor 7” value with human CCR8 [10] is 0.48 pM. In the assay with huCCR8 (1-12)-Nb [7], this molecule displayed a Kd of 9 nM, a koff of 0.0011 s⁻¹ and a kon of 122000 M⁻¹ s⁻¹. For the same molecule, in the assay with huCCR8 (1-25)[C25S]-Nb [11], binding was characterised by a dissociation constant (Kd) of 9.8 nM, the koff stood at 0.000975 s⁻¹ and the kon amounted to 99300 M⁻¹ s⁻¹.
